Measured values taken from patent US20140348819A1, “Methods of Treating Cancer” (Dana-Farber Cancer Institute, Inc., priority 2011, published 2014).

Test system: six V600E BRAF melanoma cell lines
Test: Screening of recombinant RTK ligands for ability to confer resistance to BRAFi (PLX4720) or MEKi (PD184352) (Table 4)
Format: cell-based, human
Parameters: ability of recombinant RTK ligand to confer resistance / ability of recombinant RTK ligand to confer resistance (screening value): scale not given here
Experimental: HGF is the only one that can substantially confer drug resistance to the cell lines.
The complexity of the tumor microenvironment is much greater than an in vitro co-culture system. Therefore, the inventors explored whether the activation of other RTKs could result in a similar resistance as that observed with the activation of MET. To this end, six V600E BRAF melanoma cell lines were tested for their resistance to either BRAFi (PLX4720) or MEKi (PD184352) after the addition of 22 RTK ligands that have the potential of activating almost all known RTKs. […] The activation of a selected subset of these RTKs was confirmed by western blotting and by high throughput tyrosine kinase phosphorylation profiling.

B1: VEGF-C (protein, UniProt P49767 112-227, looked up)
Vascular endothelial growth …: AHYNTEILKSIDNEWRKTQCMPREVCIDVGKEFGVATNTFFKPPCVSVYRCGGCCNSEGLQCMNTSTSYLSKTLFEITVPLSQGPKPVTISFANHTSCRCMSKLDVYRQVHSIIRR
For B1, the “ability of recombinant RTK ligand to confer resistance” value (from here on “ability of recombinant RTK ligand”) (A2058, PD184352 - 1 uM, ligand 1.6 ng/ml) was 1.01, the “ability of recombinant RTK ligand” value (A2058, PD184352 - 1 uM, ligand 6.25 ng/ml) was 1.02 and the “ability of recombinant RTK ligand” value (A2058, PD184352 - 1 uM, ligand 25 ng/ml) was 1.01. The “ability of recombinant RTK ligand” value (A2058, PD184352 - 1 uM, ligand 100 ng/ml) was 0.99, the “ability of recombinant RTK ligand” value (A2058, PD184352 - 1 uM, ligand 400 ng/ml) was 0.94 and the “ability of recombinant RTK ligand” value (A2058, PLX4720 - 2 uM, ligand 1.6 ng/ml) was 1.03. The “ability of recombinant RTK ligand” value (A2058, PLX4720 - 2 uM, ligand 6.25 ng/ml) was 1.04, the “ability of recombinant RTK ligand” value (A2058, PLX4720 - 2 uM, ligand 25 ng/ml) was 1.05 and the “ability of recombinant RTK ligand” value (A2058, PLX4720 - 2 uM, ligand 100 ng/ml) was 1.04. The “ability of recombinant RTK ligand” value (A2058, PLX4720 - 2 uM, ligand 400 ng/ml) was 1.02, the “ability of recombinant RTK ligand” value (C32, PD184352 - 1 uM, ligand 1.6 ng/ml) was 1.06 and the “ability of recombinant RTK ligand” value (C32, PD184352 - 1 uM, ligand 6.25 ng/ml) was 1.03. For the same molecule, the “ability of recombinant RTK ligand” value (C32, PD184352 - 1 uM, ligand 25 ng/ml) was 1.16, the “ability of recombinant RTK ligand” value (C32, PD184352 - 1 uM, ligand 100 ng/ml) was 1.00 and the “ability of recombinant RTK ligand” value (C32, PD184352 - 1 uM, ligand 400 ng/ml) was 1.07. The “ability of recombinant RTK ligand” value (C32, PLX4720 - 2 uM, ligand 1.6 ng/ml) was 0.94, the “ability of recombinant RTK ligand” value (C32, PLX4720 - 2 uM, ligand 6.25 ng/ml) was 1.09 and the “ability of recombinant RTK ligand” value (C32, PLX4720 - 2 uM, ligand 25 ng/ml) was 1.06. The “ability of recombinant RTK ligand” value (C32, PLX4720 - 2 uM, ligand 100 ng/ml) was 1.08, the “ability of recombinant RTK ligand” value (C32, PLX4720 - 2 uM, ligand 400 ng/ml) was 1.08 and the “ability of recombinant RTK ligand” value (Colo 829, PD184352 - 1 uM, ligand 1.6 ng/ml) was 0.97. The “ability of recombinant RTK ligand” value (Colo 829, PD184352 - 1 uM, ligand 6.25 ng/ml) was 1.02, the “ability of recombinant RTK ligand” value (Colo 829, PD184352 - 1 uM, ligand 25 ng/ml) was 0.94 and the “ability of recombinant RTK ligand” value (Colo 829, PD184352 - 1 uM, ligand 100 ng/ml) was 0.95. For the same molecule, the “ability of recombinant RTK ligand” value (Colo 829, PD184352 - 1 uM, ligand 400 ng/ml) was 0.90, the “ability of recombinant RTK ligand” value (Colo 829, PLX4720 - 2 uM, ligand 1.6 ng/ml) was 0.99 and the “ability of recombinant RTK ligand” value (Colo 829, PLX4720 - 2 uM, ligand 6.25 ng/ml) was 1.00. For the same molecule, the “ability of recombinant RTK ligand” value (Colo 829, PLX4720 - 2 uM, ligand 25 ng/ml) was 0.92, the “ability of recombinant RTK ligand” value (Colo 829, PLX4720 - 2 uM, ligand 100 ng/ml) was 0.95 and the “ability of recombinant RTK ligand” value (Colo 829, PLX4720 - 2 uM, ligand 400 ng/ml) was 0.90. For the same molecule, the “ability of recombinant RTK ligand” value (G-361, PD184352 - 1 uM, ligand 1.6 ng/ml) was 0.97, the “ability of recombinant RTK ligand” value (G-361, PD184352 - 1 uM, ligand 6.25 ng/ml) was 0.97 and the “ability of recombinant RTK ligand” value (G-361, PD184352 - 1 uM, ligand 25 ng/ml) was 0.91. For the same molecule, the “ability of recombinant RTK ligand” value (G-361, PD184352 - 1 uM, ligand 100 ng/ml) was 0.90, the “ability of recombinant RTK ligand” value (G-361, PD184352 - 1 uM, ligand 400 ng/ml) was 0.89 and the “ability of recombinant RTK ligand” value (G-361, PLX4720 - 2 uM, ligand 1.6 ng/ml) was 1.01. For the same molecule, the “ability of recombinant RTK ligand” value (G-361, PLX4720 - 2 uM, ligand 6.25 ng/ml) was 0.97, the “ability of recombinant RTK ligand” value (G-361, PLX4720 - 2 uM, ligand 25 ng/ml) was 0.92 and the “ability of recombinant RTK ligand” value (G-361, PLX4720 - 2 uM, ligand 100 ng/ml) was 0.88. For the same molecule, the “ability of recombinant RTK ligand” value (G-361, PLX4720 - 2 uM, ligand 400 ng/ml) was 0.85, the “ability of recombinant RTK ligand” value (SK-MEL-5, PD184352 - 1 uM, ligand 1.6 ng/ml) was 0.97 and the “ability of recombinant RTK ligand” value (SK-MEL-5, PD184352 - 1 uM, ligand 6.25 ng/ml) was 0.36. For the same molecule, the “ability of recombinant RTK ligand” value (SK-MEL-5, PD184352 - 1 uM, ligand 25 ng/ml) was 0.96, the “ability of recombinant RTK ligand” value (SK-MEL-5, PD184352 - 1 uM, ligand 100 ng/ml) was 0.98 and the “ability of recombinant RTK ligand” value (SK-MEL-5, PD184352 - 1 uM, ligand 400 ng/ml) was 0.33. For the same molecule, the “ability of recombinant RTK ligand” value (SK-MEL-5, PLX4720 - 2 uM, ligand 1.6 ng/ml) was 0.95, the “ability of recombinant RTK ligand” value (SK-MEL-5, PLX4720 - 2 uM, ligand 6.25 ng/ml) was 0.83 and the “ability of recombinant RTK ligand” value (SK-MEL-5, PLX4720 - 2 uM, ligand 25 ng/ml) was 0.87. For the same molecule, the “ability of recombinant RTK ligand” value (SK-MEL-5, PLX4720 - 2 uM, ligand 100 ng/ml) was 0.92, the “ability of recombinant RTK ligand” value (SK-MEL-5, PLX4720 - 2 uM, ligand 400 ng/ml) was 0.85 and the “ability of recombinant RTK ligand” value (SK-MEL-28, PD184352 - 1 uM, ligand 1.6 ng/ml) was 1.09. The “ability of recombinant RTK ligand” value (SK-MEL-28, PD184352 - 1 uM, ligand 6.25 ng/ml) was 0.95, the “ability of recombinant RTK ligand” value (SK-MEL-28, PD184352 - 1 uM, ligand 25 ng/ml) was 0.90 and the “ability of recombinant RTK ligand” value (SK-MEL-28, PD184352 - 1 uM, ligand 100 ng/ml) was 1.08. The “ability of recombinant RTK ligand” value (SK-MEL-28, PD184352 - 1 uM, ligand 400 ng/ml) was 0.85, the “ability of recombinant RTK ligand” value (SK-MEL-28, PLX4720 - 2 uM, ligand 1.6 ng/ml) was 1.05 and the “ability of recombinant RTK ligand” value (SK-MEL-28, PLX4720 - 2 uM, ligand 6.25 ng/ml) was 0.94. The “ability of recombinant RTK ligand” value (SK-MEL-28, PLX4720 - 2 uM, ligand 25 ng/ml) was 0.98, the “ability of recombinant RTK ligand” value (SK-MEL-28, PLX4720 - 2 uM, ligand 100 ng/ml) was 1.01 and the “ability of recombinant RTK ligand” value (SK-MEL-28, PLX4720 - 2 uM, ligand 400 ng/ml) was 0.89.
